Results: paper PMC10949515 (Journal of Virology, 2024)
Where a chain is given by its changes, count along the chain named.

T1: human FLNB C-terminal fragment R23–24, His6-tagged (human, UniProt O75369 2379-2601)
T1 construct: also called R23–R24; FLNB R23-24
T1 sequence (looked up): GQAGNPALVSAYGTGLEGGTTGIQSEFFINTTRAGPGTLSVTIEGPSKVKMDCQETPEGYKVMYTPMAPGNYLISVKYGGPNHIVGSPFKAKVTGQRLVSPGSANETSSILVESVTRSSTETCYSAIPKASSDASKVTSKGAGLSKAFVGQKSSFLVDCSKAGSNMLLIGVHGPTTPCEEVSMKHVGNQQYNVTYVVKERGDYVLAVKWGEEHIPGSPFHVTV

T2: FLNB R22–24 dimerization-deficient mutant (M2544E, L2546D), His6-tagged (human, UniProt O75369 2282-2601, M2544E | L2546D)
T2 construct: also called mR22–R24; mR22–24
T2 sequence (looked up): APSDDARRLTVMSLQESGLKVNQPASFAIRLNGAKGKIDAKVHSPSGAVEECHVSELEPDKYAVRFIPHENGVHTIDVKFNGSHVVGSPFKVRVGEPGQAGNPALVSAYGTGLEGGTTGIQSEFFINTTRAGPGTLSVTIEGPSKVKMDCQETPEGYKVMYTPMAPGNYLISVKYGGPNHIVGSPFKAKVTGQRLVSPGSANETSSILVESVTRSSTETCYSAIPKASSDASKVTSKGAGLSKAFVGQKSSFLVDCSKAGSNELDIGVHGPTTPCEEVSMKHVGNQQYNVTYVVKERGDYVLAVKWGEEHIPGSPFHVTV

B1: C4 N-terminal residues 1–149, His6-tagged (domain or fragment)
chain: MDTIKIFNHGEFDTIRNELVNLLKVVKWNTINSNVTVSSTDTIDISDCIREILYKQFKNVRNIEVSSDISFIKYNRFNDTTLTDDNVGYYLVIYLNRTKSVKTLIYPTPETVITSSEDIMFSKSLNFRFENVKRDYKLVMCSISLTYKP
notes: also called C4-N 1–149
B2: human FLNB C-terminal fragment R22–24, His6-tagged (domain or fragment, UniProt O75369 2282-2601, looked up)
chain: T2 sequence (looked up) with E263M, D265L
notes: also called R22–R24; FLNB R22-24

Legend:
[1] = molecular target: T1, human FLNB C-terminal fragment R23–24, …; test: ITC; conditions: both partners purified
[2] = molecular target: B2; test: ITC; conditions: both partners purified
[3] = molecular target: T2, FLNB R22–24 dimerization-deficient …; test: SEC; conditions: both partners purified
[4] = molecular target: the molecule itself

B1
Kd [1]: < 1 nM
Kd [2]: 41.5 ± 30 nM
binding result [3]: binds

B2
binding result [4]: binds
